Results from patent publication US6534281.

Assays:
human C-peptide (human) [1] = assay: sandwich immunoassay, one-step; CPT-3F-11 on particles, labeled antibody 9101
human C-peptide (human) [2] = assay: sandwich immunoassay, two-step; CPT-3F-11 on particles, labeled antibody 9101
human C-peptide (human) [3] = assay: sandwich immunoassay, one-step; CPT-3F-11 on particles, labeled antibody PEP-001
human C-peptide (human) [4] = assay: sandwich immunoassay, two-step; CPT-3F-11 on particles, labeled antibody PEP-001
human C-peptide (human) [5] = assay: ELISA on immobilized C-peptide; labeled antibody 10 ug/ml, free C-peptide 0 ug/ml
human C-peptide (human) [6] = assay: ELISA on immobilized C-peptide; labeled antibody 10 ug/ml, free C-peptide 10 ug/ml
human C-peptide (human) [7] = assay: ELISA on immobilized C-peptide; labeled antibody 0.1 ug/ml, free C-peptide 0 ug/ml
human C-peptide (human) [8] = assay: ELISA on immobilized C-peptide; labeled antibody 1.0 ug/ml, free C-peptide 0 ug/ml
human C-peptide (human) [9] = assay: ELISA on immobilized C-peptide; labeled antibody 0.1 ug/ml, free C-peptide 10 ug/ml
human C-peptide (human) [10] = assay: ELISA on immobilized C-peptide; labeled antibody 1.0 ug/ml, free C-peptide 10 ug/ml
human C-peptide (human) [11] = assay: ELISA on immobilized C-peptide; labeled antibody 10 ug/ml, free C-peptide 0.1 ug/ml
human C-peptide (human) [12] = assay: ELISA on immobilized C-peptide; labeled antibody 10 ug/ml, free C-peptide 1.0 ug/ml
human C-peptide (human) [13] = assay: ELISA on immobilized C-peptide; labeled antibody 0.1 ug/ml, free C-peptide 0.1 ug/ml
human C-peptide (human) [14] = assay: ELISA on immobilized C-peptide; labeled antibody 1.0 ug/ml, free C-peptide 0.1 ug/ml
human C-peptide (human) [15] = assay: ELISA on immobilized C-peptide; labeled antibody 1.0 ug/ml, free C-peptide 1.0 ug/ml
human C-peptide (human) [16] = assay: ELISA on immobilized C-peptide; labeled antibody 0.0 ug/ml (blank), free C-peptide 0.1 ug/ml
human C-peptide (human) [17] = assay: ELISA on immobilized C-peptide; labeled antibody 0.0 ug/ml (blank), free C-peptide 1.0 ug/ml
human C-peptide (human) [18] = assay: ELISA on immobilized C-peptide; labeled antibody 10 ug/ml, free C-peptide 0 ug/ml (reference)
human C-peptide (human) [19] = assay: ELISA on immobilized C-peptide; labeled antibody 0.1 ug/ml, free C-peptide 0 ug/ml (reference)
human C-peptide (human) [20] = assay: ELISA on immobilized C-peptide; labeled antibody 1.0 ug/ml, free C-peptide 0 ug/ml (reference)
human proinsulin (human) [21] = molecular target: human proinsulin (human) (UniProt P01308); assay: sandwich immunoassay, one-step; proinsulin 50 ng/ml; CPT-3F-11 on particles, labeled antibody 9101
human proinsulin (human) [22] = molecular target: human proinsulin (human) (UniProt P01308); assay: sandwich immunoassay, two-step; proinsulin 50 ng/ml; CPT-3F-11 on particles, labeled antibody 9101
human proinsulin (human) [23] = molecular target: human proinsulin (human) (UniProt P01308); assay: sandwich immunoassay, one-step; proinsulin 200 ng/ml; CPT-3F-11 on particles, labeled antibody 9101
human proinsulin (human) [24] = molecular target: human proinsulin (human) (UniProt P01308); assay: sandwich immunoassay, one-step; proinsulin 400 ng/ml; CPT-3F-11 on particles, labeled antibody 9101
human proinsulin (human) [25] = molecular target: human proinsulin (human) (UniProt P01308); assay: sandwich immunoassay, two-step; proinsulin 400 ng/ml; CPT-3F-11 on particles, labeled antibody 9101
human proinsulin (human) [26] = molecular target: human proinsulin (human) (UniProt P01308); assay: sandwich immunoassay, one-step, against C-peptide calibration; proinsulin 400 ng/ml; CPT-3-F11 on particles, labeled antibody 9101
human proinsulin (human) [27] = molecular target: human proinsulin (human) (UniProt P01308); assay: sandwich immunoassay, two-step, against C-peptide calibration; proinsulin 400 ng/ml; CPT-3-F11 on particles, labeled antibody 9101
human proinsulin (human) [28] = molecular target: human proinsulin (human) (UniProt P01308); assay: sandwich immunoassay, one-step, against C-peptide calibration; proinsulin 50 ng/ml; CPT-3-F11 on particles, labeled antibody PEP-001
human proinsulin (human) [29] = molecular target: human proinsulin (human) (UniProt P01308); assay: sandwich immunoassay, two-step, against C-peptide calibration; proinsulin 50 ng/ml; CPT-3-F11 on particles, labeled antibody PEP-001
human proinsulin (human) [30] = molecular target: human proinsulin (human) (UniProt P01308); assay: sandwich immunoassay, two-step, against C-peptide calibration; proinsulin 200 ng/ml; CPT-3-F11 on particles, labeled antibody PEP-001
human proinsulin (human) [31] = molecular target: human proinsulin (human) (UniProt P01308); assay: sandwich immunoassay, two-step, against C-peptide calibration; proinsulin 400 ng/ml; CPT-3-F11 on particles, labeled antibody PEP-001
[32] = molecular target: modified C-peptide (human C-peptide having Arg-Arg bound to its N-terminal and Lys-Arg bound to its C-terminal) (human); assay: sandwich immunoassay, two-step, against C-peptide calibration; modified C-peptide 5 ng/ml; CPT-3F-11 on particles, labeled antibody 9101
[33] = molecular target: modified C-peptide (human C-peptide having Arg-Arg bound to its N-terminal and Lys-Arg bound to its C-terminal) (human); assay: sandwich immunoassay, one-step, against C-peptide calibration; modified C-peptide 5 ng/ml; CPT-3F-11 on particles, labeled antibody PEP-001
[34] = molecular target: modified C-peptide (human C-peptide having Arg-Arg bound to its N-terminal and Lys-Arg bound to its C-terminal) (human); assay: sandwich immunoassay, two-step, against C-peptide calibration; modified C-peptide 5 ng/ml; CPT-3F-11 on particles, labeled antibody PEP-001

UniProt P01308, sequence (P01308 25-110): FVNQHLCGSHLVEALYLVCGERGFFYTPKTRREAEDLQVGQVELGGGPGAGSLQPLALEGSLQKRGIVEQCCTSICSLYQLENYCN
modified C-peptide (human C-peptide having Arg-Arg bound to its N-terminal and Lys-Arg bound to its C-terminal) (human), sequence (peptide, as listed by the source): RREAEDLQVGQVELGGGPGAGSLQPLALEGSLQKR
human C-peptide (human), sequence (peptide, as listed by the source): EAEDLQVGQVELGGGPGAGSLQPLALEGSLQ

anti-human C-peptide monoclonal antibody CPT-3-F11 (Dako)
2S/N value (human C-peptide (human) [1]): 0.008 ng/mL | 2S/N value (human C-peptide (human) [2]): 0.005 ng/mL | 2S/N value (human C-peptide (human) [3]): 0.012 ng/mL | 2S/N value (human C-peptide (human) [4]): 0.006 ng/mL | Absorbance (absorbance at 405 nm) (human C-peptide (human) [5]): 2.17 | Absorbance (absorbance at 405 nm) (human C-peptide (human) [6]): 0.008 | Binding Ratio (human C-peptide (human) [6]): 0.1% | Absorbance (absorbance at 405 nm) (human C-peptide (human) [7]): 1.52 | Absorbance (absorbance at 405 nm) (human C-peptide (human) [8]): 1.94 | Absorbance (absorbance at 405 nm) (human C-peptide (human) [9]): 0 | Binding Ratio (human C-peptide (human) [9]): 0% | Absorbance (absorbance at 405 nm) (human C-peptide (human) [10]): 0.003 | Binding Ratio (human C-peptide (human) [10]): 0.2% | Absorbance (absorbance at 405 nm) (human C-peptide (human) [11]): 0.336 | Binding Ratio (human C-peptide (human) [11]): 15.5% | Absorbance (absorbance at 405 nm) (human C-peptide (human) [12]): 0.059 | Binding Ratio (human C-peptide (human) [12]): 2.7% | Absorbance (absorbance at 405 nm) (human C-peptide (human) [13]): 0.179 | Binding Ratio (human C-peptide (human) [13]): 11.8% | Absorbance (absorbance at 405 nm) (human C-peptide (human) [14]): 0.311 | Binding Ratio (human C-peptide (human) [14]): 16% | Absorbance (absorbance at 405 nm) (human C-peptide (human) [15]): 0.062 | Binding Ratio (human C-peptide (human) [15]): 3.2% | Absorbance (absorbance at 405 nm) (human C-peptide (human) [16]): 0 | Binding Ratio (human C-peptide (human) [16]): 0% | Absorbance (absorbance at 405 nm) (human C-peptide (human) [17]): 0 | Binding Ratio (human C-peptide (human) [17]): 0% | Binding Ratio (human C-peptide (human) [18]): 100% | Binding Ratio (human C-peptide (human) [19]): 100% | Binding Ratio (human C-peptide (human) [20]): 100% | counts of chemiluminescence (human proinsulin (human) [21]): 4140 counts | counts of chemiluminescence (human proinsulin (human) [22]): 4400 counts | counts of chemiluminescence (human proinsulin (human) [23]): 51300 counts | counts of chemiluminescence (human proinsulin (human) [24]): 118000 counts | counts of chemiluminescence (human proinsulin (human) [25]): 99400 counts | Cross-reactivity (%) to Human Proinsulin (human proinsulin (human) [26]): 3% | Cross-reactivity (%) to Human Proinsulin (human proinsulin (human) [27]): 1.4% | Cross-reactivity (%) to Human Proinsulin (human proinsulin (human) [28]): 56.8% | Cross-reactivity (%) to Human Proinsulin (human proinsulin (human) [29]): 41.1% | Cross-reactivity (%) to Human Proinsulin (human proinsulin (human) [30]): > 30% | Cross-reactivity (%) to Human Proinsulin (human proinsulin (human) [31]): > 15% | Cross-reactivity (%) to Modified C-peptide [32]: 0.5% | Cross-reactivity (%) to Modified C-peptide [33]: 62.7% | Cross-reactivity (%) to Modified C-peptide [34]: 53.2%
